Experimental data: US20250263499A1 (SHENGHE CHINA BIOPHARMACEUTICAL, published 2025)

T1: human CD24 protein (ACRO) (human, UniProt P25063 27-59)
T1 construct: also called analyte human CD24 protein
T1 chain (looked up): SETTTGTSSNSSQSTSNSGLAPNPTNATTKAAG

T2: CD24 on tumor cells (MCF7, SKOV3, HT55, huCD24-MDA-MB-231, CD24-SKOV3) (human, UniProt P25063 27-59)
T2 construct: whole, on cells; The cell line of each result is named under assay
T2 chain (looked up): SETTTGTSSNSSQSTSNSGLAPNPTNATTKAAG


Tests used:
[1] = target: CD24 on tumor cells (MCF7, SKOV3, HT55, huCD24-MDA-MB-231, CD24-SKOV3) (human) (UniProt P25063); experiment: flow cytometry on SKOV3 cells (MFI); fit value given for a flat control curve; unit inferred, unit from the x axis label
[2] = target: CD24 on tumor cells (MCF7, SKOV3, HT55, huCD24-MDA-MB-231, CD24-SKOV3) (human) (UniProt P25063); experiment: flow cytometry on huCD24-MDA-MB-231 cells (MFI); fit value given for a flat control curve; unit inferred, unit from the x axis label
[3] = target: CD24 on tumor cells (MCF7, SKOV3, HT55, huCD24-MDA-MB-231, CD24-SKOV3) (human) (UniProt P25063); experiment: flow cytometry on MCF7 cells (MFI); fit value given for a flat control curve; unit inferred, unit from the x axis label
[4] = target: CD24 on tumor cells (MCF7, SKOV3, HT55, huCD24-MDA-MB-231, CD24-SKOV3) (human) (UniProt P25063); experiment: flow cytometry on SKOV3 cells (MFI)
[5] = target: T1, human CD24 protein (ACRO); experiment: BLI (ForteBio Octet RED96e), antibody immobilised, human CD24 protein as analyte
Protocol: ForteBio […] (BLI) was used to detect the affinity of humanized antibodies. The sample to be tested (solidified) was diluted to 20 μg/mL with 0.02% PBST (buffer). The analyte human CD24 protein (ACRO) was diluted to 100 nM with 0.02% PBST (buffer) as the initial concentration, and then diluted by double gradient for 7 gradients starting from this concentration, and a negative control (buffer) was performed.
The molecular interaction analysis instrument (ForteBio; Octet RED96e) was operated, and 200 μL of curing buffer (0.02% PBST) was added to a pre-wetted plate, and the sensor was pre-wetted for 5-10 min. Diluted samples and other reagents for assay were added into wells in the sample plate corresponding to the pre-wetted sensor.

[6] = target: T2, CD24 on tumor cells (MCF7, SKOV3, HT55, …); experiment: flow cytometry on huCD24-MDA-MB-231 cells (MFI); table under the graph prints no unit, unit from the x axis label
[7] = target: T2, CD24 on tumor cells (MCF7, SKOV3, HT55, …); experiment: flow cytometry on MCF7 cells (MFI)
[8] = target: T2, CD24 on tumor cells (MCF7, SKOV3, HT55, …); experiment: flow cytometry on MCF7 cells (MFI)
Protocol: The commercial antibody SN3 (ABCOM; ab134375) and IgG1 isotype control were used as control. MCF7, SKOV3, HT55 or huCD24-MDA-MB-231 cells were taken and transferred to a centrifuge tube, and centrifuged at 1000 rpm for 5 min. 100 μL of MCF7, SKOV3, HT55, or huCD24-MDA-MB-231 cells were spread in a 96 U plate, respectively, and washed twice with PBS. 100 μL of the fusion supernatant was added, and diluted for 8 gradients. Cells were incubated at 4° C. for 60 minutes, and then washed twice with excess FACS buffer. Cells were resuspended in 100 μL of FACS buffer and sheep anti-mouse secondary antibody-FITC (ABCOM; ab6785) was added to the samples, incubated for 30 minutes and washed twice with excess FACS buffer. Cells were fixed in fixation buffer and subsequently analyzed by flow cytometry.

Molecule | Kd [5] [nM] | further results
IgG1 isotype control (antibody) |  | EC50 [1]: 49.7 µg/mL; EC50 [2]: 3.49 µg/mL; EC50 [3]: 0.142 µg/mL
commercial antibody SN3 (ABCOM; ab134375) |  | EC50 (read off the curve) [4]: 2 µg/mL
chimeric antibody CH-02 (antibody, human IgG1, kappa, V domains shown, ms-02 variable regions on a human IgG framework, expressed in CHO cells) VH: EVQLQESGPDLVKPSQSLSLTCTVTGYSITSGYTWHWIRQFPGNKLEWMGHIQYTGNTKYNPSLESRISITRETSKNQFFLQLNSVTTEDTGTYYCARGSTNSNDYWGQGTSVTVSS VL: DIVMTQSPSSLAVSVGEKVTVSCKSSQSLLYSNDQKNYLAWYQQKPGQSPKLLIYWASTRESGVPDRFTGSGSGTDFTLTITSVKAEDLAVYYCQQYFIYPLTFGAGTKLELKR | 11.9 | EC50 [6]: 4.03 µg/mL
hu-02-L1H8 (antibody, human IgG1, kappa, V domains shown, also called humanized antibody hu-02-L1H8) VH: EVQLQESGPGLVKPSQTLSLTCTVSGYSITSGYTWHWIRQFPGNKLEWMGHIQYTGNTKYNPSLESRITISRDTSKNQFSLKLSSVTAADTATYYCARGSTNSNDYWGQGTLVTVSS VL: DIVMTQSPDSLAVSLGERATINCKSSQSLLYSNDQKNYLAWYQQKPGQPPKLLIYWASTRESGVPDRFSGSGSGTDFTLTISSLQAEDVAVYYCQQYFIYPLTFGGGTKLELKR |  | binding result [7]: binds
humanized antibody hu-02-L1H1 (antibody, human IgG1, kappa, V domains shown, Humanized from ms-02: light chain L1, heavy chain H1) VH: QVQLQESGPGLVKPSQTLSLTCTVSGYSITSGYTWHWIRQHPGKGLEWIGHIQYTGNTKYNPSLESRVTISVDTSKNQFSLKLSSVTAADTAVYYCARGSTNSNDYWGQGTLVTVSS VL: DIVMTQSPDSLAVSLGERATINCKSSQSLLYSNDQKNYLAWYQQKPGQPPKLLIYWASTRESGVPDRFSGSGSGTDFTLTISSLQAEDVAVYYCQQYFIYPLTFGGGTKLELKR | 62.7 | EC50 [6]: 2.08 µg/mL
humanized antibody hu-02-L1H7 (antibody, human IgG1, kappa, V domains shown, Humanized from ms-02: light chain L1, heavy chain H7) VH: EVQLQESGPGLVKPSQTLSLTCTVSGYSITSGYTWHWIRQFPGNKLEWIGHIQYTGNTKYNPSLESRITISRDTSKNQFSLKLSSVTAADTATYYCARGSTNSNDYWGQGTLVTVSS VL: DIVMTQSPDSLAVSLGERATINCKSSQSLLYSNDQKNYLAWYQQKPGQPPKLLIYWASTRESGVPDRFSGSGSGTDFTLTISSLQAEDVAVYYCQQYFIYPLTFGGGTKLELKR | 20.5 | EC50 [6]: 3.42 µg/mL
murine anti-CD24 antibody ms-01 (antibody, V domains shown, Mouse antibody from a hybridoma) VH: QIQLVQSGPELKKPGETVKISCKASGYIFTDYAIHWVKQAPGKGLKWMGFINTATGEPTYADDFKGRFAFSLETSASTAYLQVNSLKNEDTATYFCTSGVHWGQGTTLTVSS VL: QIVLTQSPAIMSASLGEEITLTCSASSSVSSMHWYQQKSGTSPKLLIYSTSNLASGVPSRFSGSGSGTFYSLTISSVESEDAADYYCHHWTSYMYTFGGGTKLEIK |  | EC50 (read off the curve) [8]: ~2 µg/mL
humanized antibody hu-01-L2H3 (antibody, human IgG1, kappa, V domains shown, Humanized from ms-01: light chain L2, heavy chain H3) VH: QVQLVQSGSELKKPGASVKVSCKASGYIFTDYAIHWVKQAPGQGLEWMGFINTATGEPTYADDFKGRFVFSLDTSVSTAYLQISSLKAEDTAVYFCTSGVHWGQGTLVTVSS VL: DIQMTQSPSTLSASVGDRVTITCSASSSVSSMHWYQQKPGKAPKLLIYSTSNLASGVPSRFSGSGSGTEYTLTISSLQPDDFATYYCHHWTSYMYTFGGGTKVEIKR | 9.03 | 
humanized antibody hu-01-L2H4 (antibody, human IgG1, kappa, V domains shown, Humanized from ms-01: light chain L2, heavy chain H4) VH: QVQLVQSGSELKKPGASVKVSCKASGYIFTDYAIHWVKQAPGQGLKWMGFINTATGEPTYADDFKGRFVFSLDTSVSTAYLQISSLKAEDTAVYFCTSGVHWGQGTLVTVSS VL: DIQMTQSPSTLSASVGDRVTITCSASSSVSSMHWYQQKPGKAPKLLIYSTSNLASGVPSRFSGSGSGTEYTLTISSLQPDDFATYYCHHWTSYMYTFGGGTKVEIKR | 39.1 | 
humanized antibody hu-01-L1H3 (antibody, human IgG1, kappa, V domains shown, Humanized from ms-01: light chain L1, heavy chain H3) VH: QVQLVQSGSELKKPGASVKVSCKASGYIFTDYAIHWVKQAPGQGLEWMGFINTATGEPTYADDFKGRFVFSLDTSVSTAYLQISSLKAEDTAVYFCTSGVHWGQGTLVTVSS VL: DIQMTQSPSTLSASVGDRVTITCSASSSVSSMHWYQQKPGKAPKLLIYSTSNLASGVPSRFSGSGSGTEFTLTISSLQPDDFATYYCHHWTSYMYTFGGGTKVEIKR | 10 | 
humanized antibody hu-01-L3H3 (antibody, human IgG1, kappa, V domains shown, Humanized from ms-01: light chain L3, heavy chain H3) VH: QVQLVQSGSELKKPGASVKVSCKASGYIFTDYAIHWVKQAPGQGLEWMGFINTATGEPTYADDFKGRFVFSLDTSVSTAYLQISSLKAEDTAVYFCTSGVHWGQGTLVTVSS VL: DIQLTQSPSTLSASVGDRVTITCSASSSVSSMHWYQQKPGKSPKLLIYSTSNLASGVPSRFSGSGSGTEYTLTISSLQPDDFATYYCHHWTSYMYTFGGGTKVEIKR | 12.4 | 
humanized antibody hu-01-L2H2 (antibody, human IgG1, kappa, V domains shown, Humanized from ms-01: light chain L2, heavy chain H2) VH: QVQLVQSGSELKKPGASVKVSCKASGYIFTDYAIHWVRQAPGQGLEWMGFINTATGEPTYADDFKGRFVFSLDTSVSTAYLQISSLKAEDTAVYFCTSGVHWGQGTLVTVSS VL: DIQMTQSPSTLSASVGDRVTITCSASSSVSSMHWYQQKPGKAPKLLIYSTSNLASGVPSRFSGSGSGTEYTLTISSLQPDDFATYYCHHWTSYMYTFGGGTKVEIKR | 10.5 | 
humanized antibody hu-01-L1H2 (antibody, human IgG1, kappa, V domains shown, Humanized from ms-01: light chain L1, heavy chain H2) VH: QVQLVQSGSELKKPGASVKVSCKASGYIFTDYAIHWVRQAPGQGLEWMGFINTATGEPTYADDFKGRFVFSLDTSVSTAYLQISSLKAEDTAVYFCTSGVHWGQGTLVTVSS VL: DIQMTQSPSTLSASVGDRVTITCSASSSVSSMHWYQQKPGKAPKLLIYSTSNLASGVPSRFSGSGSGTEFTLTISSLQPDDFATYYCHHWTSYMYTFGGGTKVEIKR | 5.58 | 
humanized antibody hu-01-L1H4 (antibody, human IgG1, kappa, V domains shown, Humanized from ms-01: light chain L1, heavy chain H4) VH: QVQLVQSGSELKKPGASVKVSCKASGYIFTDYAIHWVKQAPGQGLKWMGFINTATGEPTYADDFKGRFVFSLDTSVSTAYLQISSLKAEDTAVYFCTSGVHWGQGTLVTVSS VL: DIQMTQSPSTLSASVGDRVTITCSASSSVSSMHWYQQKPGKAPKLLIYSTSNLASGVPSRFSGSGSGTEFTLTISSLQPDDFATYYCHHWTSYMYTFGGGTKVEIKR | 48.2 | 
humanized antibody hu-01-L2H1 (antibody, human IgG1, kappa, V domains shown, Humanized from ms-01: light chain L2, heavy chain H1) VH: QVQLVQSGSELKKPGASVKVSCKASGYIFTDYAIHWVRQAPGQGLEWMGFINTATGEPTYADDFKGRFVFSLDTSVSTAYLQISSLKAEDTAVYYCARGVHWGQGTLVTVSS VL: DIQMTQSPSTLSASVGDRVTITCSASSSVSSMHWYQQKPGKAPKLLIYSTSNLASGVPSRFSGSGSGTEYTLTISSLQPDDFATYYCHHWTSYMYTFGGGTKVEIKR |  | binding result [5]: no binding (tested: 100 nM (highest analyte concentration))
humanized antibody hu-01-L3H2 (antibody, human IgG1, kappa, V domains shown, Humanized from ms-01: light chain L3, heavy chain H2) VH: QVQLVQSGSELKKPGASVKVSCKASGYIFTDYAIHWVRQAPGQGLEWMGFINTATGEPTYADDFKGRFVFSLDTSVSTAYLQISSLKAEDTAVYFCTSGVHWGQGTLVTVSS VL: DIQLTQSPSTLSASVGDRVTITCSASSSVSSMHWYQQKPGKSPKLLIYSTSNLASGVPSRFSGSGSGTEYTLTISSLQPDDFATYYCHHWTSYMYTFGGGTKVEIKR | 8.29 | 
humanized antibody hu-01-L3H4 (antibody, human IgG1, kappa, V domains shown, Humanized from ms-01: light chain L3, heavy chain H4) VH: QVQLVQSGSELKKPGASVKVSCKASGYIFTDYAIHWVKQAPGQGLKWMGFINTATGEPTYADDFKGRFVFSLDTSVSTAYLQISSLKAEDTAVYFCTSGVHWGQGTLVTVSS VL: DIQLTQSPSTLSASVGDRVTITCSASSSVSSMHWYQQKPGKSPKLLIYSTSNLASGVPSRFSGSGSGTEYTLTISSLQPDDFATYYCHHWTSYMYTFGGGTKVEIKR | 41.2 | 
